{"source": "patent US6867003", "biological_target": "insulin receptor partially purified from CHO-IR cells (Chinese Hamster Ovary cells expressing high levels of insulin receptors of human origin) (human) (UniProt P06213)", "assay": "cell-based or functional assay", "data": [{"binder": "GST-mGrb10 (protein, mouse, UniProt Q60760 1-621, looked up, not shown: a dimerising Fc or GST) MNNDINSSVESLNSACNMQSDTDTAPLLEDGQHASNQGAASSSRGQPQASPRQKMQRSQPVHILRRLQEEDQQLRTASLPAIPNPFPELTGAAPGSPPSVAPSSLPPPPSQPPAKHCGRCEKWIPGENTRGNGKRKIWRWQFPPGFQLSKLTRPGLWTKTTARFSKKQPKNQCPTDTVNPVARMPTSQMEKLRLRKDVKVFSEDGTSKVVEILTDMTARDLCQLLVYKSHCVDDNSWTLVEHHPQLGLERCLEDHEIVVQVESTMPSESKFLFRKNYAKYEFFKNPVNFFPDQMVNWCQQSNGGQAQLLQNFLNTSSCPEIQGFLQVKEVGRKSWKKLYVCLRRSGLYYSTKGTSKEPRHLQLLADLEESSIFYLIAGKKQYNAPNEHGMCIKPNKAKTEMKELRLLCAEDEQIRTCWMTAFRLLKYGMLLYQNYRIPQRKGLPPPFNAPMRSVSENSLVAMDFSGQIGRVIDNPAEAQSAALEEGHAWRKRSTRMNILSSQSPLHPSTLNAVIHRTQHWFHGRISREESHRIIKQQGLVDGLFLLRDSQSNPKAFVLTLCHHQKIKNFQILPCEDDGQTFFTLDDGNTKFSDLIQLVDFYQLNKGVLPCKLKHHCIRVAL", "values": [{"measurement": "amount giving 50% inhibition of the tyrosine kinase activity of the receptors (32P incorporation into poly Glu-Tyr)", "value": 0.13, "unit": "µg"}]}]}
